Experimental data from the DeepSol protein solubility set.

Test: soluble on expression in E. coli; label from the status in PepcDB or PDB records

| Sequence | soluble on expression in E. coli |
| --- | --- |
| MGSDKIHHHHHHMSTVDPVEQLLANGLKNLWYPICPVGFIEDKPVSLRRLGYKLAVWRDTDGTLHALEDHCPHRGAPLSRGVNLGDRLQCPYHGVEVRCDGVTARVPGSPGCKLEGSQATRFFHITEAAGAVWLYNSAGNVEEAPPLVLPEQLTDPEFSHFLCYTEWRGDYRYVLDNVMDPMHGTYLHKQSHSMSEGESQARFVTRDTDTGFIFEKDGQRGVNFDWTEWADTGMHWMRLEIPYPKTGGPGGNFHIVGSYTPIARDLCAVFHWRCRPLTGWQRDTWRFLYRNRLEARHWAVLEQDREMLEFMEPDANQRENLYQHDLGLVRLRRHLKNLAKAQLELIEARQL | not soluble |
| MLNPNKWLDVKKMLPRLAQKQWYAKTRYGYARGGETVHFVQNVRRYYDILTWVTQPLEHHHHHH | not soluble |
| MIDSQGWYRLARKVPSPHCDVRHDSEDISLLVVHNISLPPGQFGGPYIEQFFLGELDANQHSFFKVIAKMRVSAHCVIRRDGEVVQFVPFHLRAWHAGVSSFAGRAKCNDYSIGIELEGSDFVPYTDAQYQALTELTQALMVRYPHITLPRITGHQYIAPLRKTDPGLVFDWRRFRAGLKS | not soluble |
| MPFKMSSKAQTIKIFNLRSDTNEFIGAGDAYIPPHTGLPANCTDIAPPDIPSSHIAVFDAETQTWNLKEDHRGETVYDTTTGNQMYISEPGPLPENVTSVSPGGGYKKWDSKAKAWVNDEGAEVAARLREAEGTKSRLLQMASGKIAPLQDAVDLGIATDDEKAQLDEWKKYRVLVNRVDTSNPDWPEQPV | not soluble |
| MRHALITAGTKGLGKQVTEKLLAKGYSVTVTYHSDITAMKKMKETYKNMEERLQFVQADVTKKEDLHKIVEEAISRFGKIDFLINNAGPYVFERKKLVDYEEDEWNEMIQGNLTAVFHLLKLVVPIMRKQNFGRIINYGFQGADSAPGWIYRSAFAAAKVGLVSLTKTVAYEEAEYGITANMVCPGDIIGEMKEATIQEARQLKERNTPIGRSGTGEDIARTISFLCEEDSDMITGTIIEVTGAVDVIHRHR | not soluble |
| MTRPFNRVHLIVMDSVGIGEAPDAADFKDEGSHTLRHTLEGFDQTLPNLEKLGLGNIDKLPVVNAVEQPEAYYTKLSEASVGKDTMTGHWEIMGLNIMQPFKVYPNGFPEELIQQIEEMTGRKVVANKPASGTQIIDEWGEHQMKTGDLIVYTSADPVLQIAAHEDIIPLEELYDICEKVRELTKDPKYLIGRIIARPYVGEPGNFTRTSNRHDYALKPFGKTVLDHLKDGGYDVIAIGKINDIYDGEGVTEAVRTKSNMDGMDQLMKIVKKDFTGISFLNLVDFDALYGHRRDKPGYAQAIKDFDDRLPELFSNLKEDDLVIITADHGNDPTAPGTDHTREYIPVIMYSPKFKGGHALESDTTFSSIGATIADNFNVTLPEFGKSYLKELK | not soluble |
| MGSDKIHHHHHHMDILTGKCSDRFMAHVLKRRDQEAVRWYVLTLPTAGGGRDRISPSKGLDAELSRRERRGEALFEYFSPSYVEARKVGGKMVNTRQPLLYNYVFVHASEDEIFRLKRTLPLYNFLPRVSSGGRSYFPYLSDREMDTLRWVAASYSNELPVYVPDSGRLLKGDRVRITSGPFTDMEAEVVVQPGGGHKDVMVRILDCLWVPLFEVRAGEYELIELNTGGKHVYTHLDNDRLSEGLHDALGRYHASGVVVDEDACLAREVLRGYASLRAETDVIRCKLYSLLLPAYLLLGESDEFDRLRSTMRSMLPVIKAGQSRALLLVTLYGCTDSSLYQRMAHELVDPWQEEASPKKSKTVLIRRLRDYDRWLKHNE | not soluble |
| MYKIVSDSACDLSKEYLEKHDVTIVPLSVSFDGETYYRDGVDITRDECYQRMVDDPKLFPKTSLPSVESYADVFRSFVEQGFPVVCFTITTLFSGSYNSAINAKSLVLEDYPDANICVIDSKQNTVTQALLIDQFVRMLEDGLSFEQAMSKLDALMASARIFFTVGSLDYLKMGGRIGKVATAATGKLGVKPVIIMKDGDIGLGGIGRNRNKLKNSVLQVAKKYLDENNKDNFIVSVGYGYDKEEGFEFMKEVESTLDVKLDSETNVAIGIVSAVHTGPYPIGLGVIRKYETL | soluble |
| MGSDKIHHHHHHMPFLEIRLTKESGRIYEEHSHPMLSIGVMLEGETQFFLQGEEFRLQTGMLAVIPPRMAHACNPLPSQTRSYFILHLSLDFCLEIQGRLFNEGGQNLLPLRAPRIFDPMMYQGLTSLIQSLLKGYDSLKGEAFWGWCERFFARYTLEVSSRGDALISEVAEYLEGDVEEASLAFLSKRFQINPYTLERRFKKAYGTTPKRYHTDARLHRLKKLLRQGIPLALCAQYGGFSDQSHFQRFFKRRVALTPREYQLNFVQ | not soluble |
| MCLAIPGKVVEIKGNVGIVDFGGIRREVRLDLLSDVKVGDYVIVHTGFAIEKLDERRAREILEAWEEVFSVIGGE | not soluble |
| MRRTTRYPVSGESSLWNVYKTVSFWKVMKNFIIIQIARYTPFLSVKNWLYRTFLRMKVGKKTSFALMVMPDIMFPEKITVGDNSIIGYNTTLLAHEYLIREYRLGEIVIGNEVMIGANTTILPGVRIGDGAIVSAGTLVHKDVPSGAFVGGNPMRVIYTKEQMEAREGSY | not soluble |
| PEYSLFVGDLTPDVDDGMLYEFFVKVYPSCRGGKVVLDQTGVSKGYGFVKFTDELEQKRALTECQGAVGLGSKPVRLSVAIPKASRVKPVE | soluble |
| MKKGLTFSITSAALFFGMNHVASADQIHTVKEDAKLTDIAQTFATTTTEIQNLNHLQNRDYVQVGETIVLPDSDIVEVKDGDTIKAIAERHQMTMNQLYQLNPNLGEVIYPGQLVAVSEKGSAHLNNQLQQIFNSHEAVQPTAQINDDERNKAENNTIRNVRTSGNITPSATQTWQNNDYSASDRQQVSNTTANEQVTSNYQYSPVSHASNGSNYYDWGQCTYYAFDRRQQLGKSVGNLWGNANNWASAAQQSGYQVNNTPEVGAIFQSTAGNYGHVGVVESKNADGSIVVSEMNWQGVGQKSYRTIHNTGQYNYIHLEHHHHHH | not soluble |
| MSLIVRRYLKQDLCAVARLEVRSFEIGPYDKEYLREVLENASSISYIAQISDKIVGYIVAMPLNSQEIDIESIATDPDFRKRSIGTRLIARIENESKSLGYRNIILEVRKENIEAISFYSRLGFNIKEFIVNYYEEYYRGSRDAYRMVKSLSEGHHHHHH | not soluble |
| MSNAPLMPKATAVWLLDNTALTFDQVADFTKMHVLEVKAIADGDAAQGIKGMDPISTGQLTRDEIEKGEGDPDYRLKLAESKVVLPQAAKKKGPRYTPVSRRHERPSAILWLVRNHPELKDAQIMRLVGTTKTTIASVRDRTHWNAATLTPMDPVTLGLCSQLDLDFEVQRAAKEKPIDQQYGGATLLPASETTRKEAEFEAATSGKSQEDLDVDAVFAKLKTIGGKKHDDEDEDGGFLEHHHHHH | soluble |
| MILLLLLFILGSVSPDELISTRCQAQCLHLMDQRLQNNMELRKTLKHHIIQLCKEDATCSACSAPCREQFDDIKACKKSCVASDDRETCEDSCHYLQRIYQEKPGACPSVSNQSNYECSALCQMDGECPETQKCCSSGCSRQCLKPRSSDIKLLPIPRNISVQERKRKRSIIIRWATGRLSKAQQNENANLFLVQWRWGLHADESAMTEWQTVTVRNKPYAILKHLLSPGRFYEFRTAAVSQEGSLGFSSPSKPFKISKEAKAPPPPKDLSLGASKVVASGLWNQMVHWNPPPSDLPIKNYQISWASSTKSEADAFEEQMRKKSTLEFAAHEKRSLQSDDDEEFIGIQERDRQSVVVPSHATSSEITGLFPNSVYLVEIHASVDSSDGELHGEKGVVFIRTADSLSAVPEDREPYTGPKARIAHGSEELKIEASLKDLKTSSHAPNRPNSPQPAHLEIQTPFFDTELQTQLNWLNAAHCTPAKRQFSVKVRKTLCREYQPNHHSDTRWHDLRVTDCSALLKGLSFDCDYKVEVTDTLTGDFVVDGVFSTDTCDQTSSLTPIDCSSVTTPIQCQVTSESSAHCHWTRHHDAMQTVIGYRILLSSPINHDTNTTINQPQLREVRYENLAPGYVYTVEVQSITNKGLGRTVSTQFVTHPDLDSNAIQRFPGGEIIELPLESSGKLSIFSIFSSFFLVLLLRLL | not soluble |
| METNLFKLSLDDVETPKGSMLDLKISQSKIALPKNTVGGTILRSDLLANFLTEGNFRASVDLQRTHRIKGMIKMVATVGIPENTGIALACAMNSSIRGRASSDIYTICSQDCELWNPACTKAMTMSFNPNPCSDAWSLEFLKRTGFHCDIICVTGWTATPMQDVQVTIDWFISSQECVPRTYCVLNPQNPFVLNRWMGKLTFPQGTSRSVKRMPLSIGGGAGAKSAILMNMPNAVLSMWRYFVGDLVFEVSKMTSPYIKCTVSFFIAFGNLADDTINFEAFPHKLVQFGEIQEKVVLKFSQEEFLTAWSTQVRPATTLLADGCPYLYAMVHDSSVSTIPGDFVIGVKLTIIENMCAYGLNPGISGSRLLGTIPQ | soluble |
| MTNNSGNKVQDIMTKNVATISPNQTVQEAAQIMSQKNIGALPVVENGQVKGMITDRDITLRVSSQGKDPSTVKVAEVMTNQVVTGTPNMSVQEAANVMAQHQVRRLPIVENNQLQGIVALGDIATNSASNEAAEQALTNISEPSQPQG | soluble |
| MTAVRDPFFPADQSIRASHNPIEVRELGMMDYQRAWDLQAELNKQRQHDEINDVILVLEHPSIYTAGKRTQPSDRPQNGLPVIDVDRGGRITWHGPGQLVMYPIIKLAEPIDVVDYVRRVEEALIHVIRTHGIPNAGRIDGRSGVWVPGKTPEEHRKVAALGIRIAGGVTMHGLALNCDNTVEFYDYIVPCGISDAGVTTMSQEVGNDVTTQSMTAPLLAALDDAFAGRLVVADHSFASAPDPTKIPRRP | not soluble |
| MSLSHTLKSKTLQELDIEEIKETNPLLKLVQGQRIVQVPELVLESGVVINNFPIAYKTWGTLNEAGDNVLVICHALTGSADVADWWGPLLGNDLAFDPSRFFIICLNSMGSPYGSFSPLTINEETGVRYGPEFPLCTVRDDVRAHRIVLDSLGVKSIACVIGGSMGGMLSLEWAAMYGKEYVKNMVALATSARHSAWCISWSEAQRQSIYSDPNYLDGYYPVEEQPVAGLSAARMSALLTYRTRNSFENKFSRRSPSIAQQQKAQREETRKPSTVSEHSLQIHNDGYKTKASTAIAGISGQKGQSVVSTASSSDSLNSSTSMTSVSSVTGEVKDIKPAQTYFSAQSYLRYQGTKFINRFDANCYIAITRKLDTHDLARDRVDDITEVLSTIQQPSLIIGIQSDGLFTYSEQEFLAEHIPKSQLEKIESPEGHDAFLLEFKLINKLIVQFLKTNCKAITDAAPRAWGGDVGNDETKTSVFGEAEEVTNWEGHHHHHH | soluble |
| MSLVKISNVRVRPLVLPLKQPYHWSYGIRESFAVNLIEIEADDGTVGIGECTVAPDQTGTAAILYRLAKHLVGHSPHDVAPLIARIFHQEYLGHGANIMRAANQIFSGIDMAMWDLQGKLAGLPVHQLLGGAHRKAVGYFYFLQGETAEELARDAAVGHAQGERVFYLKVGRGEKLDLEITAAVRGEIGDARLRLDANEGWSVHDAINMCRKLEKYDIEFIEQPTVSWSIPAMAHVREKVGIPIVADQAAFTLYDVYEICRQRAADMICIGPREIGGIQPMMKAAAVAEAAGLKICIHSSFTTGITTCAEHHIGLAIPNLDDGNQIMWQLVQEDIVSSPDLTPKNGWLDAFRKPGLGFQLAEDLVAEGEGRYAASREGHHHHHH | soluble |
| MSLKEKKLVYLNSKQYEDAYRKKSVLLNDINNINEQYFDLKNSIKDYNKSSKDFESTKRQMEDELILNKMELGTLDVVGEGVEITLDDSGNQVSASSEDANFREIRTIYQVIHDFDMRAVINDIKCSGAEAISINGQRIVSNTEIYCNAEFLLINGVKISAPFNIKAIGNKNKLKTYMLASGNYLQRLKRRSIYVNLKTVNDVKIPAFKGELRHSNIKSKEGHHHHHH | soluble |
